Positions count from the first letter of the chain named. Values belong to the binder of their own block, whether it stands above or below them.
What was measured:
IL-4Rα (on TF-1 cells) [1] = biological target: T1, IL-4Rα (on TF-1 cells) (UniProt P24394 26-825, limits assumed); assay: cell-based or functional assay
IL-5 [2] = biological target: T2, IL-5 (human, UniProt P05113 20-134); assay: competition ELISA: IL-5R coated, biotin-IL-5 at EC80 mixed with antibody dilutions, OD450
T2 construct: unlabelled in the proliferation assay and as BLI antigen. 'Human' is printed only for the proliferation assay; also called human IL-5 protein; human recombinant IL-5 protein
Protocol: (§1) (3) A biotin-conjugated ligand protein (IL-4 or IL-5) was diluted to 2 times the EC80 concentration, and the antibody was diluted to 2 times the initial concentration, and 5-fold gradient dilution was carried out. The ligand protein, and the diluted antibody (dupilumab, 4E9V10-2B3V2, 4E9-V0 or 2B3 (SEQ ID NO. 25)) and hIgG respectively, were transferred at 1:1 into a new dispensing plate and mixed well.
(§2) (7) A stopping solution was added, and the values of samples in different wells were immediately read at the wavelength of 450 nm with a microplate reader and recorded as OD450. EC50 was calculated by plotting. 4E9-V0, non-humanized anti-[…] single domain antibody 2B3, dupilumab, reslizumab, and hIgG were used as controls, and the results are shown in Tables 6 and 7 and FIGS. 5 and 6, respectively.

IL-5 [3] = biological target: T2, IL-5; assay: cell-based or functional assay
[4] = biological target: T3, IL-4Rα (receptor protein / antigen) (UniProt P24394 26-232, limits assumed); assay: competition ELISA: IL-4Rα coated, biotin-IL-4 at EC80 mixed with antibody dilutions, OD450
T3 construct: also called IL-4 receptor subunit α
Protocol: as §1, §2

[5] = biological target: T3, IL-4Rα (receptor protein / antigen); assay: BLI (Octet 96), antibody loaded on sensor, antigen in solution
Protocol: (§3) Assay steps: Octet 96 and Data Acquisition software in the supporting computer were run. The bottom and sides of an acquisition probe were cleaned using a lens tissue with an appropriate amount of 75% ethanol, and the instrument was preheated for 15 min or more. Sensor pre-wetting: before the assay, the Sensor was soaked in the SD buffer for 10 min or more for later use. Then, the machine procedure was set according to: baseline→antibody→baseline→antigen binding→antigen dissociation→sensor regeneration for assay operation.

IL-4Rα (on TF-1 cells) [6] = biological target: T1, IL-4Rα (on TF-1 cells); assay: cell-based or functional assay; remark: listed apart in the source
IL-4Rα (on TF-1 cells) [7] = biological target: T1, IL-4Rα (on TF-1 cells); assay: cell-based or functional assay; remark: listed apart in the source
IL-4Rα (on TF-1 cells) [8] = biological target: T1, IL-4Rα (on TF-1 cells); assay: cell-based or functional assay; remark: listed apart in the source
[9] = biological target: T3, IL-4Rα (receptor protein / antigen); assay: BLI (Octet 96), antibody loaded on sensor, antigen 200 nM and 2-fold dilutions in solution
Protocol: as §3

T2 sequence (P05113 20-134 limits assumed): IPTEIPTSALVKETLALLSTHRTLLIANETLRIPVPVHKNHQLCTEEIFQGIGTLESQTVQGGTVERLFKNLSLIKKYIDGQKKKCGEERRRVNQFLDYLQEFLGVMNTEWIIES

B1: humanized anti-IL-4Rα single domain antibody 4E9-V11 (VHH)
VHH: QVQLVESGGGLVQPGGSLRLSCAASGDFYCMAWFRQAPGKEREAVAIRSGGRSTYYADSVKGRFTISRDNSKNTLYLQMNSLKAEDTAVYYCAVGVDGNCRNYWGQGTLVTVSS
EC50 of neutralizing IL-4-induced TF-1 proliferation (IL-4Rα (on TF-1 cells) [1]): 1880 µM

B4: dupilumab (antibody, V domains shown)
VH: EVQLVESGGGLEQPGGSLRLSCAGSGFTFRDYAMTWVRQAPGKGLEWVSSISGSGGNTYYADSVKGRFTISRDNSKNTLYLQMNSLRAEDTAVYYCAKDRLSITIRPRYYGLDVWGQGTTVTVSS
VL: DIVMTQSPLSLPVTPGEPASISCRSSQSLLYSIGYNYLDWYLQKSGQSPQLLIYLGSNRASGVPDRFSGSGSGTDFTLKISRVEAEDVGFYYCMQALQTPYTFGQGTKLEIKR
EC50 [4]: 4.32 nM

B5: humanized anti-IL-4Rα single domain antibody 4E9-V6 (VHH)
VHH: QVQLVESGGGLVQPGGSLRLSCAASGDFYCMAWFRQAPGKEREAVATIRSGGRSTYYADSVKGRFTISRDNSKNTLYLQMNSLKAEDTAVYYCAVGVDGNCRNYWGQGTLVTVSS
Kd [5]: 3.05 nM
koff [5]: 0.000506 s⁻¹
kon [5]: 166000 M⁻¹ s⁻¹
EC50 of neutralizing IL-13-induced TF-1 proliferation (IL-4Rα (on TF-1 cells) [6]): 0.759 nM
EC50 of neutralizing IL-4-induced TF-1 proliferation (IL-4Rα (on TF-1 cells) [1]): 0.000707 µM

B7: humanized anti-IL-4Rα single domain antibody 4E9-V8 (VHH)
VHH: B5 VHH with A44R, T47K, Y57L
EC50 of neutralizing IL-13-induced TF-1 proliferation (IL-4Rα (on TF-1 cells) [6]): 3.11 nM
EC50 of neutralizing IL-4-induced TF-1 proliferation (IL-4Rα (on TF-1 cells) [1]): 0.00277 µM

B8: humanized anti-IL-4Rα single domain antibody 4E9-V5 (VHH)
VHH: B5 VHH with M31L, A32G, K40Q, E41G, R42L, T47A, K84R, G99A
EC50 of neutralizing IL-4-induced TF-1 proliferation (IL-4Rα (on TF-1 cells) [1]): 0.000746 µM

B12: anti-IL-4Rα single domain antibody 4E9 (4E9-V0) (VHH)
VHH: B5 VHH with L11S, P14A, A44G, R69K, S72A, N74D, A85P, V90M, L110Q
notes: also called non-humanized antibody
EC50 [4]: 4.45 nM
EC50 of neutralizing IL-4-induced TF-1 cell proliferation (IL-4Rα (on TF-1 cells) [7]): 0.281 nM
EC50 of neutralizing IL-13-induced TF-1 cell proliferation (IL-4Rα (on TF-1 cells) [8]): 0.229 nM

B14: humanized anti-IL-4Rα single domain antibody 4E9-V10 (VHH)
VHH: B5 VHH with T47A
Kd [9]: 3.08 nM
koff [5]: 0.000534 s⁻¹
kon [5]: 173000 M⁻¹ s⁻¹
EC50 of neutralizing IL-13-induced TF-1 proliferation (IL-4Rα (on TF-1 cells) [6]): 0.18 nM
EC50 of neutralizing IL-4-induced TF-1 proliferation (IL-4Rα (on TF-1 cells) [1]): 0.000271 µM

B16: non-humanized anti-IL-5 single domain antibody 2B3 (VHH)
VHH: QVQLVESGGGSVQAGGSLRLSCAASGNTFSFSTYCMGWFRQSPGKEREGSLATIYDGSTAYAGSVKGRFTISVDNAKNILYLQMNNLKPEDTAMYYCAAAKYCMFWSDPSYWGQGTQVTVSS
EC50 (IL-5 [2]): 6.91 nM
EC50 of neutralizing IL-5-induced TF-1 cell proliferation (IL-5 [3]): 0.336 nM

More lines, now with the values ahead:

EC50 of neutralizing IL-4-induced TF-1 proliferation (IL-4Rα (on TF-1 cells) [1]): 0.185 µM
B2: humanized anti-IL-4Rα single domain antibody 4E9-V7 (VHH)
VHH: B1 VHH with Y56L

EC50 (IL-5 [2]): 6.21 nM
EC50 of neutralizing IL-5-induced TF-1 cell proliferation (IL-5 [3]): 0.122 nM
B3: reslizumab (antibody, V domains shown)
VH: EVQLVESGGGLVQPGGSLRLSCAVSGLSLTSNSVNWIRQAPGKGLEWVGLIWSNGDTDYNSAIKSRFTISRDTSKSTVYLQMNSLRAEDTAVYYCAREYYGYFDYWGQGTLVTVSS
VL: DIQMTQSPSSLSASVGDRVTITCLASEGISSYLAWYQQKPGKAPKLLIYGANSLQTGVPSRFSGSGSATDYTLTISSLQPEDFATYYCQQSYKFPNTFGQGTKVEVK

EC50 of neutralizing IL-4-induced TF-1 proliferation (IL-4Rα (on TF-1 cells) [1]): 0.000752 µM
B6: humanized anti-IL-4Rα single domain antibody 4E9-V9 (VHH)
VHH: B5 VHH with A44R

EC50 of neutralizing IL-4-induced TF-1 proliferation (IL-4Rα (on TF-1 cells) [1]): 0.0521 µM
B9: humanized anti-IL-4Rα single domain antibody 4E9-V2 (VHH)
VHH: B5 VHH with M31L, A32G, K40Q, T47A, K84R

EC50 of neutralizing IL-4-induced TF-1 proliferation (IL-4Rα (on TF-1 cells) [1]): 0.0138 µM
B10: humanized anti-IL-4Rα single domain antibody 4E9-V3 (VHH)
VHH: B5 VHH with M31L, A32G, K40Q, T47A

EC50 of neutralizing IL-4-induced TF-1 proliferation (IL-4Rα (on TF-1 cells) [1]): 18600 µM
B11: humanized anti-IL-4Rα single domain antibody 4E9-V14 (VHH)
VHH: B5 VHH with K84R

Kd [5]: 3.41 nM
koff [5]: 0.000565 s⁻¹
kon [5]: 166000 M⁻¹ s⁻¹
EC50 of neutralizing IL-13-induced TF-1 proliferation (IL-4Rα (on TF-1 cells) [6]): 4.2 nM
EC50 of neutralizing IL-4-induced TF-1 proliferation (IL-4Rα (on TF-1 cells) [1]): 0.00452 µM
B13: humanized anti-IL-4Rα single domain antibody 4E9-V13 (VHH)
VHH: B5 VHH with L76V

Kd [5]: 9.3 nM
koff [5]: 0.000268 s⁻¹
kon [5]: 28800 M⁻¹ s⁻¹
EC50 of neutralizing IL-13-induced TF-1 proliferation (IL-4Rα (on TF-1 cells) [6]): 2.11 nM
EC50 of neutralizing IL-4-induced TF-1 proliferation (IL-4Rα (on TF-1 cells) [1]): 0.00203 µM
B15: humanized anti-IL-4Rα single domain antibody 4E9-V12 (VHH)
VHH: B5 VHH with Y57L

From patent US20230279123A1 (REGENECORE BIOTECH, published 2023)
